PMC10070186, “Unusual peptide-binding proteins guide pyrroloindoline alkaloid formation in crocagin biosynthesis” (Nature Chemistry, 2023)

Key:
[1] = molecular target: CgnB (Chondromyces crocatus CM c5); experiment: MST; microscale thermophoresis of two components; which one was titrated is told only in Fig. 3c
[2] = molecular target: CgnE (Chondromyces crocatus CM c5); experiment: as above
CgnE (Chondromyces crocatus CM c5), sequence (main, as listed by the source): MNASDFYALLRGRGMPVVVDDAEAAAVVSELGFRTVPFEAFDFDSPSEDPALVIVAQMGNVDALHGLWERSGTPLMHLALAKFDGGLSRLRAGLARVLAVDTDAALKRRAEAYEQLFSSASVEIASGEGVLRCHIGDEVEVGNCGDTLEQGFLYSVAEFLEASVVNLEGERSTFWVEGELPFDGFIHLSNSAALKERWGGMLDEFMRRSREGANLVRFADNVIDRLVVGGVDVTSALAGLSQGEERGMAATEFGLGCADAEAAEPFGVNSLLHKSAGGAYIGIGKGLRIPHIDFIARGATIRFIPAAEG

B1: CgnA, crocagin precursor peptide (peptide)
chain: MKKTIKQISAGDRSKKGNIYW
modifications: not checked
[1]
  Kd: 10.5 µM
[2]
  Kd: 1800 nM
